Like-named read-outs stand apart in the source and are kept apart here.
B1: GST-tagged RET CLD4-CRD (amino acids 382–635) D567N (domain or fragment, human, UniProt P07949 382-635, looked up)
chain: QGPGAGVLLLHFNVSVLPVSLHLPSTYSLSVSRRARRFAQIGKVCVENCQAFSGINVQYKLHSSGANCSTLGVVTSAEDTSGILFVNDTKALRRPKCAELHYMVVATDQQTSRQAQAQLLVTVEGSYVAEEAGCPLSCAVSKRRLECEECGGLGSPTGRCEWRQGDGKGITRNFSTCSPSTKTCPNGHCDVVETQDINICPQDCLRGSIVGGHEPGEPRGIKAGYGTCNCFPEEEKCFCEPEDIQDPLCDELCR
B2: GST-tagged RET CLD4-CRD (amino acids 382–635), wild type (domain or fragment, human, UniProt P07949 382-635, looked up)
chain: QGPGAGVLLLHFNVSVLPVSLHLPSTYSLSVSRRARRFAQIGKVCVENCQAFSGINVQYKLHSSGANCSTLGVVTSAEDTSGILFVNDTKALRRPKCAELHYMVVATDQQTSRQAQAQLLVTVEGSYVAEEAGCPLSCAVSKRRLECEECGGLGSPTGRCEWRQGDGKGITRNFSTCSPSTKTCPDGHCDVVETQDINICPQDCLRGSIVGGHEPGEPRGIKAGYGTCNCFPEEEKCFCEPEDIQDPLCDELCR

What was measured:
[1] = molecular target: the molecule itself; experiment: non-reducing SDS-PAGE and immunoblot or Coomassie staining
[2] = molecular target: the molecule itself; experiment: as above; remark: listed apart in the source

Row | Protein | binding result [1] | binding result [2]
1 | B1 | binds | 
2 | B2 |  | binds
